According to US20230038638A1, “COMPLEMENT FACTOR I-RELATED COMPOSITIONS AND METHODS” (published 2023):

Legend:
human C4b (human) = target: T1, human C4b (human) (UniProt P0C0L5)
T1 sequence: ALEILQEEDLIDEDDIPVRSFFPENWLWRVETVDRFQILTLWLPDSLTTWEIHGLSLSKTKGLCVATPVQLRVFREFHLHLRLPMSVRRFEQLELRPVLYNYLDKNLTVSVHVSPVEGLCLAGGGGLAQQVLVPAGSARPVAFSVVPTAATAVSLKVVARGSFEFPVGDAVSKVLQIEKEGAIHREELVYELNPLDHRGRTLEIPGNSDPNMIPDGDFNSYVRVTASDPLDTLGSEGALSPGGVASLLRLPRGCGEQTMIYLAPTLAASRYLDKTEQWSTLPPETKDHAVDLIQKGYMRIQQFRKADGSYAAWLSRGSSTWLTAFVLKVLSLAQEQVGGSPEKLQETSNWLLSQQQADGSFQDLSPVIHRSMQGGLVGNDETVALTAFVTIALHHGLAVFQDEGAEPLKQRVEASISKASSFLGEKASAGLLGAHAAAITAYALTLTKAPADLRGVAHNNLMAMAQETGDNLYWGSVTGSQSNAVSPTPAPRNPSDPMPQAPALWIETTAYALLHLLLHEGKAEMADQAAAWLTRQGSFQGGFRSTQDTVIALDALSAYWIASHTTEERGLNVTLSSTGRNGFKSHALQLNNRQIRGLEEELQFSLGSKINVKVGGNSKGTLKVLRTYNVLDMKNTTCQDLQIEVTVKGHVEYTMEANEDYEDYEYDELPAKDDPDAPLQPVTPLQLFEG

[1] = target: soluble human C3b (human) (UniProt P01024)

C4b Screen Ref Fold (fold vs CFI-HSA wild type) (human C4b (human))	iC3b Screen Ref Fold (fold vs CFI-HSA wild type) [1]	Substance	further results
0.38	0.39	CFI-HSA variant I322V (enzyme)	
0.31	0.11	CFI-HSA variant R462A (enzyme)	
0.24	0.25	CFI-HSA variant E530D (enzyme)	
4.01	1.14	CFI-HSA Y408L; E457G; E461Q; R462K; N531G; R557K (enzyme)	
4.98	1.57	CFI-HSA D425R; Y408L; N531G; E457G; E461Q; R462K; F464Y; E530Y (enzyme)	
0.34	0.03	(HSA-GS)-V311-V565 - G(13) - K1-G310 (enzyme)	
0.96	0.56	CFI-HSA R365T (enzyme)	
0.12	0.04	CFI-HSA variant 514-MDANNVT (SEQ ID NO: 13)-520 --> NG (enzyme)	
-0.02	0.02	CFI-HSA variant T495F; Y496L; D497E; S499G; I500K; G533A; K534Q; P535K; E536N; F537K (enzyme)	
-0.02	0.01	CFI-HSA variant K504P (enzyme)	
4.36	0.1	CFI-HSA E457G; N531G; E461Q; R462K; F464Y; GGSSGG (SEQ ID NO: 6); CR1 (ccp15-17) (from UniProt P17927) (enzyme)	
0.05	0.65	CFI-HSA F399G (enzyme)	
2.48	2.03	CFI-HSA E457G; E530Y (enzyme)	
-0.04	0	CFI-HSA variant T495F; Y496L; D497E; S499G; I500K (enzyme)	
0.92	0.73	CFI-HSA D549H (enzyme)	
0.09	0.71	CFI-HSA variant Y408A (enzyme)	
0.21	0.03	(HSA-GS)-V311-V565 - G(10) - K1-G310; C309S; C435S (enzyme)	
3.77	0.77	CFI-HSA Y408L; N531G; R557A (enzyme)	
1.64	0.75	CFI-HSA variant N402E (enzyme)	
3.57	0.5	CFI-HSA N531G; E457G; E461Q; ΔC-term (Δ558-PFISQYNV (SEQ ID NO: 14)-565) (enzyme)	
0.01	0	CFI-HSA variant D506E (enzyme)	
-0.05	0	CFI-HSA variant R462D (enzyme)	
-0.01	-0.04	CFI-HSA D501G (enzyme)	
0.06	0.03	(HSA-GS)-V311-V565 - G(13) - K1-G310; C309S; C435S (enzyme)	
4.28	1.81	CFI-HSA E457G; E461Q; R557K (enzyme)	
0.35	0.16	CFI-HSA R365G (enzyme)	
-0.1	0.29	CFI-HSA K424S (enzyme)	
0.18	0.6	CFI-HSA R365S (enzyme)	
4.69	1.81	CFI-HSA N531G; E457G; E461Q; R557K (enzyme)	
2.71	2.05	CFI-HSA N531G; D425R; E530Y (enzyme)	

More lines, now with the values behind:

Substance	C4b Screen Ref Fold (fold vs CFI-HSA wild type) (human C4b (human))	iC3b Screen Ref Fold (fold vs CFI-HSA wild type) [1]	further results
CFI-HSA R365E (enzyme)	-0.06	0.02	
CFI-HSA K424A (enzyme)	0.26	0.87	
CFI-HSA variant I322V; V323I; R327P (enzyme)	0.38	0.36	
CFI-HSA E401G (enzyme)	0.82	2.1	
CFI-HSA variant G556P; P558G (enzyme)			C4b Screen Ref Fold (fold of CFI-HSA wild type) (human C4b (human)): 1.86; iC3b Screen Ref Fold (fold of CFI-HSA wild type) [1]: 0.68
CFI-HSA Y408L; N531G; ΔC-term (Δ558-PFISQYNV (SEQ ID NO: 14)-565) (enzyme)	1.85	0.3	
CFI-HSA T377G; E457G; E461Q (enzyme)	3.75	2.27	
CFI-HSA variant E457G; P535G; N422K (enzyme)			C4b Screen Ref Fold (fold of CFI-HSA wild type) (human C4b (human)): 1.87; iC3b Screen Ref Fold (fold of CFI-HSA wild type) [1]: 1.43
CFI-HSA variant E457G; N531G; P535G; WT; GGSSGG (SEQ ID NO: 6); CR1(ccp15-17) (from UniProt P17927) (enzyme)			C4b Screen Ref Fold (fold of CFI-HSA wild type) (human C4b (human)): 5.82; iC3b Screen Ref Fold (fold of CFI-HSA wild type) [1]: 0.03
CFI-HSA K424I (enzyme)	0.28	1.48	
CFI-HSA S343G (enzyme)	0.92	1.32	
CFI-HSA T377G; E461Q (enzyme)	3.17	2.82	
CFI-HSA variant P535G; N422K (enzyme)			C4b Screen Ref Fold (fold of CFI-HSA wild type) (human C4b (human)): 0.09; iC3b Screen Ref Fold (fold of CFI-HSA wild type) [1]: 0.52
CFI-HSA variant Δ(K1-P305); N531G; P535A (enzyme)	0.15	0.05	
CFI-HSA variant Y553F; P558S (enzyme)			C4b Screen Ref Fold (fold of CFI-HSA wild type) (human C4b (human)): 1.26; iC3b Screen Ref Fold (fold of CFI-HSA wild type) [1]: 0.84
CFI-HSA Y408L; E457G; E461Q; R462K; N531G; R557A (enzyme)	3.22	1.29	

Substance	C4b Screen Ref Fold (fold vs CFI-HSA wild type) (human C4b (human))	iC3b Screen Ref Fold (fold vs CFI-HSA wild type) [1]	further results
CFI-HSA Q69G (enzyme)	0.14	1.17	
CFI-HSA variant F559L; Y563H; V565T (enzyme)			C4b Screen Ref Fold (fold of CFI-HSA wild type) (human C4b (human)): 0.55; iC3b Screen Ref Fold (fold of CFI-HSA wild type) [1]: 0.58
CFI-HSA variant Y408L; N531G; P535G; WT; GGSSGG (SEQ ID NO: 6); CR1(ccp15-17) (from UniProt P17927) (enzyme)			C4b Screen Ref Fold (fold of CFI-HSA wild type) (human C4b (human)): 3.6; iC3b Screen Ref Fold (fold of CFI-HSA wild type) [1]: 0.05
CFI-HSA N531G; P535A; R557A (enzyme)	3.98	0.57	
CFI-HSA D549A (enzyme)	1.04	0.66	
CFI-HSA variant P535G; K534Q (enzyme)			C4b Screen Ref Fold (fold of CFI-HSA wild type) (human C4b (human)): 0.35; iC3b Screen Ref Fold (fold of CFI-HSA wild type) [1]: 0.24
CFI-HSA variant D425K; E457G; E461Q; N531G; R557A (enzyme)			C4b Screen Ref Fold (fold relative to CFI-HSA wild type) (human C4b (human)): 2.8; iC3b Screen Ref Fold (fold relative to CFI-HSA wild type) [1]: 0.08
CFI-HSA R456G (enzyme)	0.04	0.03	
CFI-HSA variant K504G (enzyme)	0.15	0.17	
CFI-HSA variant Y408L; N531G; WT; GGSSGG (SEQ ID NO: 6); CR1(ccp15-17) (from UniProt P17927) (enzyme)			C4b Screen Ref Fold (fold of CFI-HSA wild type) (human C4b (human)): 4.17; iC3b Screen Ref Fold (fold of CFI-HSA wild type) [1]: 0.22
CFI-HSA variant S552G; F559L (enzyme)			C4b Screen Ref Fold (fold of CFI-HSA wild type) (human C4b (human)): 1.41; iC3b Screen Ref Fold (fold of CFI-HSA wild type) [1]: 0.79
CFI-HSA variant Y408L; N531G; E457G; E461Q; R462K; F464Y; S507A (enzyme)	0.01	0	
CFI-HSA variant Δ(K1-P305) (enzyme)	0.06	0.04	
CFI-HSA K424H (enzyme)	0.53	1.46	
CFI-HSA variant Y408L; K534Q (enzyme)			C4b Screen Ref Fold (fold of CFI-HSA wild type) (human C4b (human)): 1.26; iC3b Screen Ref Fold (fold of CFI-HSA wild type) [1]: 0.97
CFI-HSA R557S (enzyme)	1.11	0.1	
